Measurements published in article PMC4112721 (Plant Biotechnology Journal, 2013).

B1: VRC01 from transiently transformed Nicotiana benthamiana plants (antibody, V domains shown)
VH: QVQLVQSGGQMKKPGESMRISCRASGYEFIDCTLNWIRLAPGKRPEWMGWLKPRGGAVNYARPLQGRVTMTRDVYSDTAFLELRSLTVDDTAVYFCTRGKNCDYNWDFEHWGRGTPVIVSS
VL: EIVLTQSPGTLSLSPGETAIISCRTSQYGSLAWYQQRPGQAPRLVIYSGSTRAAGIPDRFSGSRWGPDYNLTISNLESGDFGVYYCQQYEFFGQGTKVQVD
notes: IgG1 kappa; plant-codon-optimized genes, both chains on one pTRAk.2 vector; also called VRC01 transient; transient plant-derived VRC01
B2: VRC01 from HEK cells (antibody, V domains shown)
VH: B1 VH
VL: B1 VL
notes: as the heavy chain of m1; as the light chain of m1; IgG1 kappa; also called VRC01 HEK; HEK-cells-derived VRC01; source: HEK cells, purified
B3: VRC01 from stably transformed (transgenic) Nicotiana tabacum plants (antibody, V domains shown)
VH: B1 VH
VL: B1 VL
notes: as the heavy chain of m1; as the light chain of m1; IgG1 kappa; source: N. tabacum cv

target: T1, HIV-1 envelope glycoprotein gp120 IIIB (HIV-1 group M subtype B, isolate IIIB …, UniProt P03375); assay: SPR; Protein A amine-coupled on a CM5 chip, VRC01 captured to about 100 RU, gp120 IIIB injected at 20 ug/mL; BIAcore X-100, 25 °C, HBS-EP+ (10 mM HEPES pH 7.4, 150 mM NaCl, 3 mM EDTA, 0.05% surfactant P-20); 1:1 Langmuir fit; triplicate; conditions: both partners purified
T1 construct: gp120 surface glycoprotein, cut product of the HIV-1 Env precursor, isolate IIIB; also called recombinant gp120 III; HIV gp120 IIIB; source: purified recombinant; NIH ARRRP

Binder	Kd [nM]
B1	1.68
B2	0.66
B3	1.39
